Test results: patent US20090036380A1, “Composition And Method For Brain Tumor Therapy” (Yeda Research and Development Co., Ltd., priority 2006, published 2009)

Tests used:
[1] = system: TrkA; test: Co-immunoprecipitation of HA-Karet constructs with TrkA; assay type: binding; conditions: co-transfected Hek or NNR5 cells, anti-HA IP
Protocol: FIG. 3c is a co-immunoprecipitation assay depicting co-immunoprecipitation of HA-Karet with TrkA in COS cells. Karet tagged with the HA epitope was immunoprecipitated with anti-HA antibody and the blot was incubated with anti-TrkA (RTA). In control experiments the HA-Karet was substituted with vector.
FIG. 3d is a co-immunoprecipitation assay depicting interaction of Karet and TrkA in NNR5 cells transfected with TrkA.
FIG. 3e is a co-immunoprecipitation assay depicting co-immunoprecipitation of HA-Karet with TricA in co-transfected NNR5 cells immunoprecipitated with anti-HA (Roche) and Western blot with the anti-TrkA antibody C14 (Santa Cruz).
FIGS. 4a-c are co-immunoprecipitation assay results depicting the influence of NGF treatment on TrkA-Karet interaction. FIG. 4a depicts that TrkA-Karet interaction occurred prior to NGF treatment and was enhanced after ligand stimulation for 10 minutes (10 m) or 2 hours (2 h). HA-Karet was electroporated into cell line PC12, and the cells were treated with 50 ng/ml NGF for the indicated time periods in order to activate p75 and TrkA. Karet tagged with the HA epitope was immunoprecipitated with anti-HA antibody, the precipitated proteins were separated electrophoretically, and gel blots were incubated with anti-TrkA antibody (RTA). […]

[2] = biological target: 27 amino acid residue juxtamembrane region of TrkA (Homo sapiens, UniProt P04629); test: In-vitro affinity co-precipitation with biotinylated TrkA juxtamembrane peptide; assay type: binding; conditions: streptavidin beads, recombinant protein, versus two control peptides
Description: FIG. 8a is a co-immunoprecipitation analysis depicting interaction of Karet PTB domain with a juxtamembrane region of TrkA. Biotinylated synthetic peptide corresponding to the TrkA sequence in the juxtamembrane and control peptide were immobilized on streptavidin beads and then used to precipitate recombinant Karet protein. Precipitates were washed, eluted and bound Karet was visualized by Western blot with anti-His antibody.
FIG. 8b is an in-vitro affinity co-precipitation Western blot depicting that the isolated N-terminal PTB domain of Karet specifically interacts with a […] residue juxtamembrane region of TrkA having the sequence Biotinylated synthetic peptides corresponding to a 27 amino acid residue juxtamembrane region of TrkA having the sequence […] (SEQ ID NO: 10), and two control peptides were immobilized on streptavidin beads, and then used to precipitate recombinant PTB domain-containing Karet(1-228) truncation mutant. Precipitates were washed, eluted and bound Karet(1-228) was visualized by Western blot with Karet antibody.

[3] = system: PC12 cells; test: Viability / death of PC12 cells after transfection with Karet constructs (Live/dead kit, FACS, cell counting, Hoechst); assay type: cell-based, rat; conditions: PC12-necdin stable cells electroporated with Karet
Protocol: FIG. 5a is a bar-graph of FACS data depicting 50 percent death of PC12 cells overexpressing Karet. Shown is a FACS analysis of PC12 viability 15 hours after transfection with Ha-Karet or control vector using Live/dead kit (Molecular probes), T-test=0.003.
FIG. 5b is a series of fluorescence photomicrographs depicting death of PC12 cells caused by Karet overexpression. Shown is a live/dead kit analysis of PC12 cells overexpressing Ha-Karet (left panels) versus control vector-transfected cells (right panels). Live cell are stained in green, dead cells are stained in red. Upper panels each show red fluorescence only (left picture) and green fluorescence only (right picture) pairs, and lower panels each show combined red and green fluorescence (left picture) and light microscopy images (right picture) pairs. […]
FIG. 5e is a histogram depicting that Karet expression induces cell death of TrkA expressing cells, which is increased by NGF treatment and is decreased by necdin. […] Cells were counted and result presented as percent of control.
PC12 cells were transfected with Ha Karet, PTB, non PTB and their combinations. Cells were analyzed by FACS 18 hours after transfection using the dead/live kit. […]
The lower panel is a histogram depicting that Karet-mediated cell death correlates well with expression levels of the Karet protein. […] Cells were counted and the results were determined as percent of control. […]

[4] = system: PC12 cells; test: Effect of pathway proteins and inhibitors on Karet-induced cell death in PC12 cells; assay type: cell-based, rat; conditions: co-electroporated with Karet into PC12, 12 hours

Chain of 27 amino acid residue juxtamembrane region of TrkA (P04629 464-490 limits assumed): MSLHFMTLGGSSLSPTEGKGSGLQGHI

B1: Karet(1-228): N-terminal, PTB-domain-containing truncation mutant of mouse Karet, amino acid residues 1-228 (SEQ ID NO: 7) (protein, listed as Mus musculus)
chain: MEEEGKKGKKPGIVSPFKRVFLKGEKSRDKKAHEKVTERRPLHTVVLALPERVEPDRLLSDYIEKEVKYLGQLTSIPGYLNPSSRTEILHFIDKAKRSHQLPGHLTQEHDAVLSLSAYNVKLAWRDGEDIILRVPIHDIAAVSYVRDDAAHLVVLKTAQDPGISPSQSLCAESSRGLSAGSLSESAVGPVEACCLVIMATESKVAAEELCSLLSQVFQIVYTESTIDF
modifications: HA tag; N-terminal PTB-domain-containing, truncation mutant of the mouse Karet
- co-immunoprecipitation / interaction with TrkA [1]: interacts with TrkA
- co-immunoprecipitation / interaction with TrkA ([1]; listed as PTB domain alone): co-immunoprecipitated
- precipitation by immobilized TrkA peptide (SEQ ID NO: 10) [2]: precipitated by the TrkA peptide

B2: necdin: MAGE protein, interactor of the intracellular domain of p75 (protein)
chain: MSEQSKDLSDPNFAAEVPDCEMQDSDAVPVGIPPPASLAANLAGPPCAPEGPMAAQQASPPPEERIEDVDPKILQQAAEEGRAHQPQSPARPIPAPPAPAQLVQKAHELMWYVLVKDQKRMVLWFPDMVKEVMGSYKKWCRSILRRTSVILARVFGLHLRLTNLHTMEFALVKALSPEELDRVALNNRMPMTGLLLMILSLIYVKGRGAREGAVWNVLRILGLRPWKKHSTFGDVRKIITEEFVQQNYLKYQRVPHIEPPEYEFFWGSRANREITKMQIMEFLARVFKKDPQAWPSRYREALEQARALREANLAAQAPRSSVSED
- effect on the apoptotic effects of Karet [3]: attenuated somewhat the apoptotic effects of Karet

B3: JIP1: a Jnk scaffold and inhibitor (protein, UniProt Q9UQF2 1-711, looked up)
C-Jun-amino-terminal …: MAERESGGLGGGAASPPAASPFLGLHIASPPNFRLTHDISLEEFEDEDLSEITDECGISLQCKDTLSLRPPRAGLLSAGGGGAGSRLQAEMLQMDLIDATGDTPGAEDDEEDDDEERAARRPGAGPPKAESGQEPASRGQGQSQGQSQGPGSGDTYRPKRPTTLNLFPQVPRSQDTLNNNSLGKKHSWQDRVSRSSSPLKTGEQTPPHEHICLSDELPPQSGPAPTTDRGTSTDSPCRRSTATQMAPPGGPPAAPPGGRGHSHRDRIHYQADVRLEATEEIYLTPVQRPPDAAEPTSAFLPPTESRMSVSSDPDPAAYPSTAGRPHPSISEEEEGFDCLSSPERAEPPGGGWRGSLGEPPPPPRASLSSDTSALSYDSVKYTLVVDEHAQLELVSLRPCFGDYSDESDSATVYDNCASVSSPYESAIGEEYEEAPRPQPPACLSEDSTPDEPDVHFSKKFLNVFMSGRSRSSSAESFGLFSCIINGEEQEQTHRAIFRFVPRHEDELELEVDDPLLVELQAEDYWYEAYNMRTGARGVFPAYYAIEVTKEPEHMAALAKNSDWVDQFRVKFLGSVQVPYHKGNDVLCAAMQKIATTRRLTVHFNPPSSCVLEISVRGVKIGVKADDSQEAKGNKCSHFFQLKNISFCGYHPKNNKYFGFITKHPADHRFACHVFVSEDSTKALAESVGRAFQQFYKQFVEYTCPTEDIYLE
- effect on cell death induction by Karet [4]: did not affect cell death induction

B4: p35: a baculovirus caspase-8 and caspase-10 inhibitor (protein, UniProt P08160 1-299, looked up)
Early 35 kDa protein: MCVIFPVEIDVSQTIIRDCQVDKQTRELVYINKIMNTQLTKPVLMMFNISGPIRSVTRKNNNLRDRIKSKVDEQFDQLERDYSDQMDGFHDSIKYFKDEHYSVSCQNGSVLKSKFAKILKSHDYTDKKSIEAYEKYCLPKLVDERNDYYVAVCVLKPGFENGSNQVLSFEYNPIGNKVIVPFAHEINDTGLYEYDVVAYVDSVQFDGEQFEEFVQSLILPSSFKNSEKVLYYNEASKNKSMIYKALEFTTESSWGKSEKYNWKIFCNGFIYDKKSKVLYVKLHNVTSALNKNVILNTIK
- effect on cell death induction by Karet [4]: did not affect cell death induction
